Measurements reported in patent US20210388087A1 (Chugai, published 2021).

T1: Human CD3eg linker (human)
T1 construct: Single chain: epsilon and gamma subunits of human CD3 joined by a 29-mer linker, Flag-tag at the C-terminus; also called recombinant human CD3
T1 chain: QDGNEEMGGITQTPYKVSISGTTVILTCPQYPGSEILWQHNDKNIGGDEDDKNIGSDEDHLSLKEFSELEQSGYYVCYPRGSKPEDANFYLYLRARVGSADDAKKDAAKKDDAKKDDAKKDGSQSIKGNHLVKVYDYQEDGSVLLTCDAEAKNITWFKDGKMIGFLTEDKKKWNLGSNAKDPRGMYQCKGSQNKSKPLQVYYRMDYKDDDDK

B1: H183/L072 VH D52aM (antibody, name in Kabat numbering, V domains shown)
VH: QVQLVESGGGLVQPGRSLRLSCAASGFTFSNAWMHWVRQAPGKGLEWVAQIKMKGNAYAAYYAPSVKGRFTISRDDSKNSIYLQMNSLKTEDTAVYYCHYVHYASASTVLPAFGVDAWGQGTTVTVSS
VL: DIVMTQSPLSLPVTPGEPASISCQASQELVHMNRNTYLHWYQQKPGQAPRLLIYKVSNRFPGVPDRFSGSGSGTDFTLKISRVEAEDVGVYYCAQGTSVPFTFGQGTKLEIK
B2: H183/L072 VH D52aS (antibody, name in Kabat numbering, V domains shown)
VH: QVQLVESGGGLVQPGRSLRLSCAASGFTFSNAWMHWVRQAPGKGLEWVAQIKSKGNAYAAYYAPSVKGRFTISRDDSKNSIYLQMNSLKTEDTAVYYCHYVHYASASTVLPAFGVDAWGQGTTVTVSS
VL: DIVMTQSPLSLPVTPGEPASISCQASQELVHMNRNTYLHWYQQKPGQAPRLLIYKVSNRFPGVPDRFSGSGSGTDFTLKISRVEAEDVGVYYCAQGTSVPFTFGQGTKLEIK
B3: H183/L072 VH D101I (antibody, name in Kabat numbering, V domains shown)
VH: QVQLVESGGGLVQPGRSLRLSCAASGFTFSNAWMHWVRQAPGKGLEWVAQIKDKGNAYAAYYAPSVKGRFTISRDDSKNSIYLQMNSLKTEDTAVYYCHYVHYASASTVLPAFGVIAWGQGTTVTVSS
VL: DIVMTQSPLSLPVTPGEPASISCQASQELVHMNRNTYLHWYQQKPGQAPRLLIYKVSNRFPGVPDRFSGSGSGTDFTLKISRVEAEDVGVYYCAQGTSVPFTFGQGTKLEIK
B4: H183/L072 VH D101L (antibody, name in Kabat numbering, V domains shown)
VH: QVQLVESGGGLVQPGRSLRLSCAASGFTFSNAWMHWVRQAPGKGLEWVAQIKDKGNAYAAYYAPSVKGRFTISRDDSKNSIYLQMNSLKTEDTAVYYCHYVHYASASTVLPAFGVLAWGQGTTVTVSS
VL: DIVMTQSPLSLPVTPGEPASISCQASQELVHMNRNTYLHWYQQKPGQAPRLLIYKVSNRFPGVPDRFSGSGSGTDFTLKISRVEAEDVGVYYCAQGTSVPFTFGQGTKLEIK
B5: H183/L072 VH D52aP (antibody, name in Kabat numbering, V domains shown)
VH: QVQLVESGGGLVQPGRSLRLSCAASGFTFSNAWMHWVRQAPGKGLEWVAQIKPKGNAYAAYYAPSVKGRFTISRDDSKNSIYLQMNSLKTEDTAVYYCHYVHYASASTVLPAFGVDAWGQGTTVTVSS
VL: DIVMTQSPLSLPVTPGEPASISCQASQELVHMNRNTYLHWYQQKPGQAPRLLIYKVSNRFPGVPDRFSGSGSGTDFTLKISRVEAEDVGVYYCAQGTSVPFTFGQGTKLEIK
B6: H183/L072 VH F27A (antibody, name in Kabat numbering, V domains shown)
VH: QVQLVESGGGLVQPGRSLRLSCAASGATFSNAWMHWVRQAPGKGLEWVAQIKDKGNAYAAYYAPSVKGRFTISRDDSKNSIYLQMNSLKTEDTAVYYCHYVHYASASTVLPAFGVDAWGQGTTVTVSS
VL: DIVMTQSPLSLPVTPGEPASISCQASQELVHMNRNTYLHWYQQKPGQAPRLLIYKVSNRFPGVPDRFSGSGSGTDFTLKISRVEAEDVGVYYCAQGTSVPFTFGQGTKLEIK
B7: H183/L072 VH D101P (antibody, name in Kabat numbering, V domains shown)
VH: QVQLVESGGGLVQPGRSLRLSCAASGFTFSNAWMHWVRQAPGKGLEWVAQIKDKGNAYAAYYAPSVKGRFTISRDDSKNSIYLQMNSLKTEDTAVYYCHYVHYASASTVLPAFGVPAWGQGTTVTVSS
VL: DIVMTQSPLSLPVTPGEPASISCQASQELVHMNRNTYLHWYQQKPGQAPRLLIYKVSNRFPGVPDRFSGSGSGTDFTLKISRVEAEDVGVYYCAQGTSVPFTFGQGTKLEIK
B8: H183/L072 VH D101A (antibody, name in Kabat numbering, V domains shown)
VH: QVQLVESGGGLVQPGRSLRLSCAASGFTFSNAWMHWVRQAPGKGLEWVAQIKDKGNAYAAYYAPSVKGRFTISRDDSKNSIYLQMNSLKTEDTAVYYCHYVHYASASTVLPAFGVAAWGQGTTVTVSS
VL: DIVMTQSPLSLPVTPGEPASISCQASQELVHMNRNTYLHWYQQKPGQAPRLLIYKVSNRFPGVPDRFSGSGSGTDFTLKISRVEAEDVGVYYCAQGTSVPFTFGQGTKLEIK
B9: H183/L072 VH F27E (antibody, name in Kabat numbering, V domains shown)
VH: QVQLVESGGGLVQPGRSLRLSCAASGETFSNAWMHWVRQAPGKGLEWVAQIKDKGNAYAAYYAPSVKGRFTISRDDSKNSIYLQMNSLKTEDTAVYYCHYVHYASASTVLPAFGVDAWGQGTTVTVSS
VL: DIVMTQSPLSLPVTPGEPASISCQASQELVHMNRNTYLHWYQQKPGQAPRLLIYKVSNRFPGVPDRFSGSGSGTDFTLKISRVEAEDVGVYYCAQGTSVPFTFGQGTKLEIK
B10: H183/L072 VH D52aQ (antibody, name in Kabat numbering, V domains shown)
VH: QVQLVESGGGLVQPGRSLRLSCAASGFTFSNAWMHWVRQAPGKGLEWVAQIKQKGNAYAAYYAPSVKGRFTISRDDSKNSIYLQMNSLKTEDTAVYYCHYVHYASASTVLPAFGVDAWGQGTTVTVSS
VL: DIVMTQSPLSLPVTPGEPASISCQASQELVHMNRNTYLHWYQQKPGQAPRLLIYKVSNRFPGVPDRFSGSGSGTDFTLKISRVEAEDVGVYYCAQGTSVPFTFGQGTKLEIK
B11: H183/L072 VH D52aY (antibody, name in Kabat numbering, V domains shown)
VH: QVQLVESGGGLVQPGRSLRLSCAASGFTFSNAWMHWVRQAPGKGLEWVAQIKYKGNAYAAYYAPSVKGRFTISRDDSKNSIYLQMNSLKTEDTAVYYCHYVHYASASTVLPAFGVDAWGQGTTVTVSS
VL: DIVMTQSPLSLPVTPGEPASISCQASQELVHMNRNTYLHWYQQKPGQAPRLLIYKVSNRFPGVPDRFSGSGSGTDFTLKISRVEAEDVGVYYCAQGTSVPFTFGQGTKLEIK
B12: H183/L072 VH D52aV (antibody, name in Kabat numbering, V domains shown)
VH: QVQLVESGGGLVQPGRSLRLSCAASGFTFSNAWMHWVRQAPGKGLEWVAQIKVKGNAYAAYYAPSVKGRFTISRDDSKNSIYLQMNSLKTEDTAVYYCHYVHYASASTVLPAFGVDAWGQGTTVTVSS
VL: DIVMTQSPLSLPVTPGEPASISCQASQELVHMNRNTYLHWYQQKPGQAPRLLIYKVSNRFPGVPDRFSGSGSGTDFTLKISRVEAEDVGVYYCAQGTSVPFTFGQGTKLEIK
B13: H183/L072 VH F27G (antibody, name in Kabat numbering, V domains shown)
VH: QVQLVESGGGLVQPGRSLRLSCAASGGTFSNAWMHWVRQAPGKGLEWVAQIKDKGNAYAAYYAPSVKGRFTISRDDSKNSIYLQMNSLKTEDTAVYYCHYVHYASASTVLPAFGVDAWGQGTTVTVSS
VL: DIVMTQSPLSLPVTPGEPASISCQASQELVHMNRNTYLHWYQQKPGQAPRLLIYKVSNRFPGVPDRFSGSGSGTDFTLKISRVEAEDVGVYYCAQGTSVPFTFGQGTKLEIK
B14: H183/L072 VH D52aN (antibody, name in Kabat numbering, V domains shown)
VH: QVQLVESGGGLVQPGRSLRLSCAASGFTFSNAWMHWVRQAPGKGLEWVAQIKNKGNAYAAYYAPSVKGRFTISRDDSKNSIYLQMNSLKTEDTAVYYCHYVHYASASTVLPAFGVDAWGQGTTVTVSS
VL: DIVMTQSPLSLPVTPGEPASISCQASQELVHMNRNTYLHWYQQKPGQAPRLLIYKVSNRFPGVPDRFSGSGSGTDFTLKISRVEAEDVGVYYCAQGTSVPFTFGQGTKLEIK
B15: H183/L072 VH D52aR (antibody, name in Kabat numbering, V domains shown)
VH: QVQLVESGGGLVQPGRSLRLSCAASGFTFSNAWMHWVRQAPGKGLEWVAQIKRKGNAYAAYYAPSVKGRFTISRDDSKNSIYLQMNSLKTEDTAVYYCHYVHYASASTVLPAFGVDAWGQGTTVTVSS
VL: DIVMTQSPLSLPVTPGEPASISCQASQELVHMNRNTYLHWYQQKPGQAPRLLIYKVSNRFPGVPDRFSGSGSGTDFTLKISRVEAEDVGVYYCAQGTSVPFTFGQGTKLEIK
B16: H183/L072 VH D52aW (antibody, name in Kabat numbering, V domains shown)
VH: QVQLVESGGGLVQPGRSLRLSCAASGFTFSNAWMHWVRQAPGKGLEWVAQIKWKGNAYAAYYAPSVKGRFTISRDDSKNSIYLQMNSLKTEDTAVYYCHYVHYASASTVLPAFGVDAWGQGTTVTVSS
VL: DIVMTQSPLSLPVTPGEPASISCQASQELVHMNRNTYLHWYQQKPGQAPRLLIYKVSNRFPGVPDRFSGSGSGTDFTLKISRVEAEDVGVYYCAQGTSVPFTFGQGTKLEIK
B17: H183/L072 VH D52aT (antibody, name in Kabat numbering, V domains shown)
VH: QVQLVESGGGLVQPGRSLRLSCAASGFTFSNAWMHWVRQAPGKGLEWVAQIKTKGNAYAAYYAPSVKGRFTISRDDSKNSIYLQMNSLKTEDTAVYYCHYVHYASASTVLPAFGVDAWGQGTTVTVSS
VL: DIVMTQSPLSLPVTPGEPASISCQASQELVHMNRNTYLHWYQQKPGQAPRLLIYKVSNRFPGVPDRFSGSGSGTDFTLKISRVEAEDVGVYYCAQGTSVPFTFGQGTKLEIK
B18: H183/L072 VH F27D (antibody, name in Kabat numbering, V domains shown)
VH: QVQLVESGGGLVQPGRSLRLSCAASGDTFSNAWMHWVRQAPGKGLEWVAQIKDKGNAYAAYYAPSVKGRFTISRDDSKNSIYLQMNSLKTEDTAVYYCHYVHYASASTVLPAFGVDAWGQGTTVTVSS
VL: DIVMTQSPLSLPVTPGEPASISCQASQELVHMNRNTYLHWYQQKPGQAPRLLIYKVSNRFPGVPDRFSGSGSGTDFTLKISRVEAEDVGVYYCAQGTSVPFTFGQGTKLEIK
B19: H183/L072 VH D101M (antibody, name in Kabat numbering, V domains shown)
VH: QVQLVESGGGLVQPGRSLRLSCAASGFTFSNAWMHWVRQAPGKGLEWVAQIKDKGNAYAAYYAPSVKGRFTISRDDSKNSIYLQMNSLKTEDTAVYYCHYVHYASASTVLPAFGVMAWGQGTTVTVSS
VL: DIVMTQSPLSLPVTPGEPASISCQASQELVHMNRNTYLHWYQQKPGQAPRLLIYKVSNRFPGVPDRFSGSGSGTDFTLKISRVEAEDVGVYYCAQGTSVPFTFGQGTKLEIK

Biological target: T1, Human CD3eg linker
Assay: Biacore SPR, vs template H183/L072

B1 and B2 are the same in “fold change of affinity” value: 0 fold for the first, 0 fold for the second.

First: B3
Second: B4
The “fold change of affinity” value of the first is lower: 0.6 fold for the first, 2.3 fold for the second.

First: B5
Second: B6
The “fold change of affinity” value of the first is lower: 0 fold for the first, 0.2 fold for the second.

Going from B7 to B8, the “fold change of affinity” value rises from 0 fold to 0.8 fold.

B9 and B10 are the same in “fold change of affinity” value: 0 fold for the first, 0 fold for the second.

B11 and B12 are the same in “fold change of affinity” value: 0 fold for the first, 0 fold for the second.

Going from B13 to B14, the “fold change of affinity” value falls from 0.5 fold to 0.1 fold.

B15 and B16 are the same in “fold change of affinity” value: 0 fold for the first, 0 fold for the second.

B17 and B18 are the same in “fold change of affinity” value: 0 fold for the first, 0 fold for the second.

With B19 the “fold change of affinity” value was 0.7 fold.
